# Results as given in publication PMC7368258 (Proceedings of the National Academy of Sciences of the …, 2020).
# Substitutions are numbered along the chain they refer to. Names may count otherwise.
# B1: mCER-Prx2(C51S), expressed in HEK293 cells (natural protein)
# chain: MASGNARIGKPAPDFKATAVVDGAFKEVKLSDYKGKYVVLFFYPLDFTFVSPTEIIAFSNRAEDFRKLGCEVLGVSVDSQFTHLAWINTPRKEGGLGPLNIPLLADVTRRLSEDYGVLKTDEGIAYRGLFIIDGKGVLRQITVNDLPVGRSVDEALRLVQAFQYTDEHGEVCPAGWKPGSDTIKPNVDDSKEYFSKHN
# B2: recombinant mCER-Prx2(C172S) (natural protein)
# chain: B1 chain with S51C, C172S
# B3: recombinant mCER-Prx2 (natural protein)
# chain: B1 chain with S51C
# B4: recombinant mCER-Prx2(C51S) (natural protein)
# chain: B1 chain
# B5: mCER-Prx2(T82E/A85E), expressed in HEK293 cells (natural protein)
# chain: B1 chain with S51C, T82E, A85E
# Columns and labels:
# FRET or BRET = molecular target: the molecule itself; experiment: FRET or BRET
# SEC = molecular target: the molecule itself; experiment: SEC
Protein,stoichiometry N (FRET or BRET),stoichiometry N (SEC)
B1,10,
B2,,2
B3,,10
B4,,10
B5,2,
